Experimental data taken from patent US20150203577A1 (Chugai, published 2015).
Where a chain is given by its changes, count along the chain named.

T1: mouse FcγRII extracellular domain, C-terminal His tag (mouse, UniProt P08101 30-210)
T1 construct: also called mFcγRII; mFcgRII
T1 sequence: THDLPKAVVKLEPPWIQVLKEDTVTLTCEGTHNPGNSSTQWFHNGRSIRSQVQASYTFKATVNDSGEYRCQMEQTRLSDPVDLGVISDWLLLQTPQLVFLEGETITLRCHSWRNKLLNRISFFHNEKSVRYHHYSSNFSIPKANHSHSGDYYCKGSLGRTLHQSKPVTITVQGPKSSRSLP

T2: mouse FcγRIII extracellular domain, C-terminal His tag (mouse, UniProt P08508 31-215)
T2 construct: also called mFcγRIII; mFcgRIII
T2 chain: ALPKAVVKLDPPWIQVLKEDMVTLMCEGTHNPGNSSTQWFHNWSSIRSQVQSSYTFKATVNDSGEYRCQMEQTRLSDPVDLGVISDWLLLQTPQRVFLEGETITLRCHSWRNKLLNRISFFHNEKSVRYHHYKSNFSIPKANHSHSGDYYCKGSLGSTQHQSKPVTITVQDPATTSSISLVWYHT

B1: H237-MB791/MRAL-k0 (antibody, mouse IgG1, kappa)
heavy: QVQLQESGPGLVKPSETLSLTCAVSGHSISHDHAWSWVRQPPGEGLEWIGFISYSGITNYNPSLQGRVTISRDNSKNTLYLQMNSLRAEDTAVYYCARSLARTTAMDYWGEGTLVTVSSAKTTPPSVYPLAPGSAAQTNSMVTLGCLVKGYFPEPVTVTWNSGSLSSGVHTFPAVLQSDLYTLSSSVTVPSSTWPSETVTCNVAHPASSTKVDKKIVPRDCGCKPCICEPNEVELVFIFPPKPKDVLTITLTPKVTCVVVDISKDDPEVQFSWFVDDVEVHTAQTQPREELFNSTFRSVSELPIMHQDWLNGKEFKCRVDSDAFPAPIERTISKTKGRPKAPQVYTIPPPKEQMAKDKVSLTCMITDFFPEDITVEWQWNGQPAENYKNTQPIMDTDGSYFVYSKLNVQKSNWEAGNTFTCSVLHEGLHNHHTEKSLSHSPGK
light: not shown
notes: copies: 2 + 2
B2: H237-MB816/MRAL-k0 (antibody, mouse IgG1, kappa)
heavy: B1 heavy with L291Q, D320M, R330K
light: not shown
notes: copies: 2 + 2
B3: H237-MB810/MRAL-k0 (antibody, mouse IgG1, kappa)
heavy: B1 heavy with D320N, D322A, P327Y, R330K
light: not shown
notes: copies: 2 + 2
B4: H237-MB807/MRAL-k0 (antibody, mouse IgG1, kappa)
heavy: B1 heavy with D320M, D322A, R330K
light: not shown
notes: copies: 2 + 2
B5: H237-MB846/MRAL-k0 (antibody, mouse IgG1, kappa)
heavy: B1 heavy with K264D, L291Q, D320N, A323G, R330K
light: not shown
notes: copies: 2 + 2
B6: H237-MB812/MRAL-k0 (antibody, mouse IgG1, kappa)
heavy: B1 heavy with L291Q, D322A, A323G, R330K
light: not shown
notes: copies: 2 + 2
B7: H237-MB808/MRAL-k0 (antibody, mouse IgG1, kappa)
heavy: B1 heavy with D320N, D322A, A323G, R330K
light: not shown
notes: copies: 2 + 2
B8: H237-MB822/MRAL-k0 (antibody, mouse IgG1, kappa)
heavy: B1 heavy with L291Q, D320N, A323G, R330K
light: not shown
notes: copies: 2 + 2
B9: H237-MB847/MRAL-k0 (antibody, mouse IgG1, kappa)
heavy: B1 heavy with D320N, A323G, R330K
light: not shown
notes: copies: 2 + 2
B10: H237-MB815/MRAL-k0 (antibody, mouse IgG1, kappa)
heavy: B1 heavy with L291Q, D322A, E329Y, R330K
light: not shown
notes: copies: 2 + 2
B11: H237-MB813/MRAL-k0 (antibody, mouse IgG1, kappa)
heavy: B1 heavy with L291Q, D322A, P327F, R330K
light: not shown
notes: copies: 2 + 2
B12: H237-MB848/MRAL-k0 (antibody, mouse IgG1, kappa)
heavy: B1 heavy with L291Q, A323G, R330K
light: not shown
notes: copies: 2 + 2
B13: H237-MB827/MRAL-k0 (antibody, mouse IgG1, kappa)
heavy: B1 heavy with L291Q, D320N, D322A, A323G, P327Y, R330K
light: not shown
notes: copies: 2 + 2
B14: H237-MB833/MRAL-k0 (antibody, mouse IgG1, kappa)
heavy: B1 heavy with L291Q, D320N, D322A, P327Y
light: not shown
notes: copies: 2 + 2
B15: H237-MB829/MRAL-k0 (antibody, mouse IgG1, kappa)
heavy: B1 heavy with L291Q, D320N, D322A, A323G
light: not shown
notes: copies: 2 + 2
B16: H237-MB811/MRAL-k0 (antibody, mouse IgG1, kappa)
heavy: B1 heavy with D320N, D322A, E329Y, R330K
light: not shown
notes: copies: 2 + 2

Target: T1, mouse FcγRII extracellular domain, …
Assay: SPR (Biacore T200), antibody captured on Protein L, mFcγR analyte

Row | Kd | relative mFcγRII-binding activity (mIgG1 = 1) | Binder
1 | 5.23 nM | 40.1 fold vs H237-mIgG1/MRAL-k0 | B1
2 | 6.9 nM | 30.4 fold vs H237-mIgG1/MRAL-k0 | B2
3 | 10.1 nM | 20.8 fold vs H237-mIgG1/MRAL-k0 | B3
4 | 9.58 nM | 21.9 fold vs H237-mIgG1/MRAL-k0 | B4
5 | 2.91 nM | 72.1 fold vs H237-mIgG1/MRAL-k0 | B5
6 | 6.28 nM | 33.4 fold vs H237-mIgG1/MRAL-k0 | B6
7 | 7.19 nM | 29.2 fold vs H237-mIgG1/MRAL-k0 | B7
8 | 4.8 nM | 43.8 fold vs H237-mIgG1/MRAL-k0 | B8
9 | 4.81 nM | 43.7 fold vs H237-mIgG1/MRAL-k0 | B9
10 | 12 nM | 17.6 fold vs H237-mIgG1/MRAL-k0 | B10
11 | 12.9 nM | 16.3 fold vs H237-mIgG1/MRAL-k0 | B11
12 | 4.58 nM | 45.8 fold vs H237-mIgG1/MRAL-k0 | B12
13 | 9.77 nM | 21.5 fold vs H237-mIgG1/MRAL-k0 | B13
14 | 8.31 nM | 25.3 fold vs H237-mIgG1/MRAL-k0 | B14
15 | 6.22 nM | 33.8 fold vs H237-mIgG1/MRAL-k0 | B15
16 | 9.45 nM | 22.2 fold vs H237-mIgG1/MRAL-k0 | B16

Target: T2, mouse FcγRIII extracellular domain, …
Assay: as above

Row | Kd | relative mFcγRIII-binding activity (mIgG1 = 1) | Binder
17 | 256 nM | 1.1 fold vs H237-mIgG1/MRAL-k0 | B1
18 | 431 nM | 0.7 fold vs H237-mIgG1/MRAL-k0 | B2
19 | 546 nM | 0.5 fold vs H237-mIgG1/MRAL-k0 | B3
20 | 579 nM | 0.5 fold vs H237-mIgG1/MRAL-k0 | B4
21 | 133 nM | 2.1 fold vs H237-mIgG1/MRAL-k0 | B5
22 | 418 nM | 0.7 fold vs H237-mIgG1/MRAL-k0 | B6
23 | 359 nM | 0.8 fold vs H237-mIgG1/MRAL-k0 | B7
24 | 304 nM | 0.9 fold vs H237-mIgG1/MRAL-k0 | B8
25 | 213 nM | 1.3 fold vs H237-mIgG1/MRAL-k0 | B9
26 | 938 nM | 0.3 fold vs H237-mIgG1/MRAL-k0 | B10
27 | 951 nM | 0.3 fold vs H237-mIgG1/MRAL-k0 | B11
28 | 308 nM | 0.9 fold vs H237-mIgG1/MRAL-k0 | B12
29 | 744 nM | 0.4 fold vs H237-mIgG1/MRAL-k0 | B13
30 | 630 nM | 0.4 fold vs H237-mIgG1/MRAL-k0 | B14
31 | 445 nM | 0.6 fold vs H237-mIgG1/MRAL-k0 | B15
32 | 654 nM | 0.4 fold vs H237-mIgG1/MRAL-k0 | B16
